Experiment [1] addresses T1, mouse UBA7 (mouse, UniProt Q9DBK7 1-977).
T1 sequence (looked up): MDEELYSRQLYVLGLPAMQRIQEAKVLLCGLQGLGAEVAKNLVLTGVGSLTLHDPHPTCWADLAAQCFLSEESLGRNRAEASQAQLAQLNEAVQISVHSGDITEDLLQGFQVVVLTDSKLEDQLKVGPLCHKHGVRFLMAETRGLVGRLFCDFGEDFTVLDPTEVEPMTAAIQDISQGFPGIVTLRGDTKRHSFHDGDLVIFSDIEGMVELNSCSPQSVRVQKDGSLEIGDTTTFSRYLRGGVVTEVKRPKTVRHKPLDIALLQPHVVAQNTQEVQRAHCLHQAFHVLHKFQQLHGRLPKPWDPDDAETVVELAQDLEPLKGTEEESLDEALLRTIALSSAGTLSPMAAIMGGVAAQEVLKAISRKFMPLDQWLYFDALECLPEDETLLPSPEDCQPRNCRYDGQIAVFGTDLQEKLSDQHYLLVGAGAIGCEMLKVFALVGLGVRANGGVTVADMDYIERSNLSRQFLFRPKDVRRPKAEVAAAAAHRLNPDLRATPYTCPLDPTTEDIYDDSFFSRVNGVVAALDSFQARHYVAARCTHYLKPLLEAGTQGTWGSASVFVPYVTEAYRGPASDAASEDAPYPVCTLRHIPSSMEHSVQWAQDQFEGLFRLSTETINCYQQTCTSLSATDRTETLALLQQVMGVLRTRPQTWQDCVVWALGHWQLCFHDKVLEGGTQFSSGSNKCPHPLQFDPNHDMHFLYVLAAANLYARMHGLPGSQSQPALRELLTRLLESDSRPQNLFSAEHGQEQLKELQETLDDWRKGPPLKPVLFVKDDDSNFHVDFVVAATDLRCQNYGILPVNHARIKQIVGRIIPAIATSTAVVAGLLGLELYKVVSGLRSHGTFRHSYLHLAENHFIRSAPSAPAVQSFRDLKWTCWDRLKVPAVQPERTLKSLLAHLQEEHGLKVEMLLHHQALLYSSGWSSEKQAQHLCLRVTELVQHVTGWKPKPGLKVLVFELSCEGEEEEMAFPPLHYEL
In words: disulfide complex formation on non-reducing SDS-PAGE.

The target of experiment [2] is T2, human UBA7 (human, UniProt P41226 1-1012).
T2 sequence: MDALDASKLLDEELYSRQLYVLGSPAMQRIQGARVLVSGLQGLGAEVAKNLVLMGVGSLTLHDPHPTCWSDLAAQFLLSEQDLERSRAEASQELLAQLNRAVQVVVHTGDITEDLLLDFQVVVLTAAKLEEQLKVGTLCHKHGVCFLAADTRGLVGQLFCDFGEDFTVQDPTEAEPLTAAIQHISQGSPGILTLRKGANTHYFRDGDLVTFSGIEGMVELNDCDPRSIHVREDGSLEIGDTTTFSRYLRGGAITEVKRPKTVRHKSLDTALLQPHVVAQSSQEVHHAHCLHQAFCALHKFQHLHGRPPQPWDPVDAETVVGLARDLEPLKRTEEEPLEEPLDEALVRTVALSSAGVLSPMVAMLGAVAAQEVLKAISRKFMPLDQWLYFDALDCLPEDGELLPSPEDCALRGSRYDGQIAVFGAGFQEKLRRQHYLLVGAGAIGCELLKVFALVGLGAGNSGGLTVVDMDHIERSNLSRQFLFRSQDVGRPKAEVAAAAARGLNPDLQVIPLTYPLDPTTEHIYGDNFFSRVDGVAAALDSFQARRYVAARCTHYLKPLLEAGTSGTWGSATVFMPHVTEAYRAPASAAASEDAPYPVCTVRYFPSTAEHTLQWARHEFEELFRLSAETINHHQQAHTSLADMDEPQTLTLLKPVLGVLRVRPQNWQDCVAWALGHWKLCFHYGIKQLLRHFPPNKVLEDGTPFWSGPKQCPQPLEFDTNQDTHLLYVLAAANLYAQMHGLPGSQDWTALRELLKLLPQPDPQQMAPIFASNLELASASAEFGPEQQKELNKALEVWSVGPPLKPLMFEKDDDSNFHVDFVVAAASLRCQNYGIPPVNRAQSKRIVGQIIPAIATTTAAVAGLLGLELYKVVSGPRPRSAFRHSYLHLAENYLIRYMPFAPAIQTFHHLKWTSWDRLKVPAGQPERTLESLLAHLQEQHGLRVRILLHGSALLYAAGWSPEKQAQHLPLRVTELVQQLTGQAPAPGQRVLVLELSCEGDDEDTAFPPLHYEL
Described as above.

B1: mouse UBE2L6 (enzyme, UniProt Q9QZU9 1-153, looked up)
chain: MMASKRVAKELESLSKELPPYLRQLSSDDANVLVWHMLLLPDQLPYGLKAFQVRIDFPREYPFKPPTLRFTTKIYHPNVREDGLVCLPLISNENWKPYTKPYQVLEALNVLVSKPNLEEPVRLELADLLTQNPEMFRKKAEEFTLKFGVDRPS
Consider B1, for which the binding result in experiment [1] is on record as “binds”.

B2: human UBE2L6 (enzyme)
chain: not shown
As for B2, the binding result in experiment [2] was “binds”.

The values above are taken from article doi:10.1101/2024.11.07.622398 (bioRxiv, 2024).
